The record followed here is patent US20090098112A1 (Genentech, published 2009).

Test [1] concerns the target T1, recombinant human integrin α5β1 (R&D) (human, UniProt P08648 42-995; P05556 21-728).
T1 construct: Bought recombinant heterodimer (R&D); It was used coated on plates and in solution in the phage ELISA, and as analyte or immobilized in BIAcore; also called alpha5beta1; a5b1
As to the kind of experiment: SPR (BIACORE-3000), antibody immobilized on CM5 chip (about 450 RU), human integrin α5β1 injected 300 nM to 0.29 nM, 25 °C, 1:1 Langmuir fit. Here is the method:
FIG. 7 depicts the results of a BIACORE® analysis of humanized 7H5.v1, v2 and v3-IgG against human integrin α5β1. […] Humanized 7H5.v2 indicates the most binding affinity improvement in off-rate.
(§1) Affinity determinations were performed by surface-plasmon resonance using a BIACORE™-3000 instrument. Immobilization was achieved by random coupling through amino groups using a protocol provided by the manufacturer. Two different formats were operated to study binding kinetics for antibody against human integrin α5β1. In FIGS. 3A, 7, and 9A, antibodies were immobilized on a CM5 sensor chip around 450 response units (RU), and 2-fold serial diluted concentrations of human integrin α5β1 (300 nM to 0.29 nM) in PBT buffer (0.05% Tween 20 in PBS) were injected with a flow rate of 30 μl/min at 25° C. In FIGS. 3B and 9B, human integrin […] was immobilized on a CM5 sensor chip around 800 RU, and 2-fold serial diluted concentrations of antibodies (200 nM to 0.2 nM) in PBT buffer (0.05% Tween 20 in PBS) were injected with a flow rate of 30 μl/min at 25° C. After each injection, the chip was regenerated using 10 mM Glycine-HCl buffer at pH 1.7. Binding response was corrected by subtracting the RU from a blank flow cell. Association rates (kₒₙ) and dissociation rates (koff) were calculated using a simple one-to-one Langmuir binding model (BIAcore Evaluation Software version 3.2). The equilibrium dissociation constant (Kd) was calculated as the ratio koff/kₒₙ.

In test [2] the target is T1, recombinant human integrin α5β1 (R&D). The test is described as follows: SPR (BIACORE-3000), human integrin α5β1 immobilized on CM5 chip (about 800 RU), antibody injected 200 nM to 0.2 nM, 25 °C, 1:1 Langmuir fit. Here is the method:
(§2) FIG. 9 depicts the results of a BIACORE® analysis of humanized 7H5.v2, v4 and v5-IgG against human integrin α5β1.
as §1

Test [3] has the same target. The test is described as follows: SPR (BIACORE-3000), antibody immobilized on CM5 chip (about 450 RU), human integrin α5β1 injected 300 nM to 0.29 nM, 25 °C, 1:1 Langmuir fit. As to the method: as §2, §1
The source holds these as a separate data set.

For test [4] the target is unchanged. The test is described as above. As to the method:
(§3) FIG. 3 depicts the results of a BIACORE® analysis of chimeric 7H5-IgG and humanized 7H5.v1-IgG against human integrin α5β1.
as §1
The source holds these as a separate data set.

Test [5] has the same target. The test is described as follows: SPR (BIACORE-3000), human integrin α5β1 (R&D) immobilized on CM5 chip (about 800 RU), antibody injected 200 nM to 0.2 nM, 25 °C, 1:1 Langmuir fit. As to the method:
as §3, §1

T1 sequence (P08648 42-995 limits assumed, chain 1 of 2): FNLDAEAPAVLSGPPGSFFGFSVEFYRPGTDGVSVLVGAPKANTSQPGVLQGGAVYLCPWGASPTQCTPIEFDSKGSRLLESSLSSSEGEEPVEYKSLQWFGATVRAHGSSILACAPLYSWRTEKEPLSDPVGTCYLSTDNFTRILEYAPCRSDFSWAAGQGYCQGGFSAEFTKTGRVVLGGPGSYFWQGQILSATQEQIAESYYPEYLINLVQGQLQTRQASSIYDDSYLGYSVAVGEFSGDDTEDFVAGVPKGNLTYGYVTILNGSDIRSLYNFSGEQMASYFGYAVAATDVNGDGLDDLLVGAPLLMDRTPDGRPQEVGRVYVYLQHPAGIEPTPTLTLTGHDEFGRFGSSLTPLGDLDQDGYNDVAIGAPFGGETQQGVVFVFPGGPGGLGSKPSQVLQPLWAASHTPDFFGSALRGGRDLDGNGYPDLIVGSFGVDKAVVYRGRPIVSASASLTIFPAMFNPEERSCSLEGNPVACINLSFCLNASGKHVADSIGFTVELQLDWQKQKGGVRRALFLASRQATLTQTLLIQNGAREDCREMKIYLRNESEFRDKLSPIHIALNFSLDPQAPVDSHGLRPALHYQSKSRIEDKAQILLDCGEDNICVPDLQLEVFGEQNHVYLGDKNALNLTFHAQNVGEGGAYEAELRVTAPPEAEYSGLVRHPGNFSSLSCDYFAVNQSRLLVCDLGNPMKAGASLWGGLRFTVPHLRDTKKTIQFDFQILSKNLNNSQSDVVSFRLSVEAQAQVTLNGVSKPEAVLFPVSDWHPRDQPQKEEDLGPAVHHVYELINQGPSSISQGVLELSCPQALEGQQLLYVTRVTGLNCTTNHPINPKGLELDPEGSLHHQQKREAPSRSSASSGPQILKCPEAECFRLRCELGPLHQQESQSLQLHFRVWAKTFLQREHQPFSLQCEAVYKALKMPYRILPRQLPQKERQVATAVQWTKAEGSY
T1 sequence (P05556 21-728 limits assumed, chain 2 of 2): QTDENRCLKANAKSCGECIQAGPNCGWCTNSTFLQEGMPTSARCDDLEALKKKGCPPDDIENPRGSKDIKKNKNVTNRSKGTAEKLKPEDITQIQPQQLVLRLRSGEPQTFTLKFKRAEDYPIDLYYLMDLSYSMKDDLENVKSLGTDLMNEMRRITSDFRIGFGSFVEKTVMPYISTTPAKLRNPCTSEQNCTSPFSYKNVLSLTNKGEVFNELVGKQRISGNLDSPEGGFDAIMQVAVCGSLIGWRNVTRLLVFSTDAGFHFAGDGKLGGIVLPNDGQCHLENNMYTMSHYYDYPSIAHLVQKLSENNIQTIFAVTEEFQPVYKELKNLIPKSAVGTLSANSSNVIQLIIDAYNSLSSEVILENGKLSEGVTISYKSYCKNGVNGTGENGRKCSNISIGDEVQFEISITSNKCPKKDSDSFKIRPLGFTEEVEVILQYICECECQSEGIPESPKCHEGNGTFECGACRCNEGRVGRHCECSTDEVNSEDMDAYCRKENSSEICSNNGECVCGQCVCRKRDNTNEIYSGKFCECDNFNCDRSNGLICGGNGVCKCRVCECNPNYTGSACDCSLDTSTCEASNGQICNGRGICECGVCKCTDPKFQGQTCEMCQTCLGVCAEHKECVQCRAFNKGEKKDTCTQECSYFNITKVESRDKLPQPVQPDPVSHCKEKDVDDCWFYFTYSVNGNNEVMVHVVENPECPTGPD

B1: humanized 7H5.v2-IgG (antibody, V domains shown)
VH: EVQLVESGGGLVQPGGSLRLSCAASGYTFTDYYLYWVRQAPGKGLEWIGGISPSSGGTTFADAFEGKATLSVDKSKNTAYLQMNSLRAEDTAVYYCTRDAYGDWYFDVWGQGT
VL: DIQMTQSPSSLSASVGDRVTITCKASQSVGSDVAWYQQKPGKAPKTLIYSTSYRYSGVPSRFSGSGSGTDFTLTISSLQPEDFATYYCQQYSSYPFTFGQGTKVEIKR
notes: also called h7H5.v2
As to B1, in test [1], the Kd worked out at 0.77 nM, the koff is 6.2e-05 s⁻¹ and the on-rate (kon) was 81000 M⁻¹ s⁻¹. Besides, in test [2], the Kd was 0.11 nM, the koff came to 0.00015 s⁻¹ and the kon was found to be 1.4e+06 M⁻¹ s⁻¹. For the same molecule, in test [3], the Kd is 0.77 nM, the koff stood at 6.4e-05 s⁻¹ and the kon came to 83000 M⁻¹ s⁻¹.

B2: h7H5.v1 (antibody, human IgG1, V domains shown)
VH: EVQLVESGGGLVQPGGSLRLSCAASGYTFTDYYLYWVRQAPGKGLEWIGGISPSNGGTTFNDNFENKATLSVDKSKNTAYLQMNSLRAEDTAVYYCTRDAYGDWYFDVWGQGT
VL: DIQMTQSPSSLSASVGDRVTITCKASQNVGSDVAWYQQKPGKAPKTLIYSTSYRYSGVPSRFSGSGSGTDFTLTISSLQPEDFATYYCQQYNSYPFTFGQGTKVEIKR
notes: CDR graft of murine 7H5, as human IgG1; also called humanized 7H5.v1-IgG
Regarding B2, in test [4], the Kd worked out at 3.67 nM, the koff is 0.00018 s⁻¹ and the kon turned out to be 49000 M⁻¹ s⁻¹. Moreover, in test [5], the Kd was found to be 0.23 nM, the dissociation rate constant (koff) was 0.0002 s⁻¹ and the kon is 870000 M⁻¹ s⁻¹. In test [1], the Kd came to 1.91 nM, the koff stood at 8.2e-05 s⁻¹ and the kon stood at 43000 M⁻¹ s⁻¹.
